According to patent publication US20240392028A1:

Target: highest binding amyloid (in vitro)
Test: calculated from in vitro binding of the antibody to amyloid; method not described

Michaelis-Menton EC 90 (calculated): 36.5 mg/L
B1: CAEL-101 antibody having a heavy chain variable domain (VH) as set forth in SEQ ID NO:1 and a light chain variable domain (VL) as set forth in SEQ ID NO:2 (antibody, human IgG1, V domains shown)
VH: QVQLKESGPGLVAPSQSLSITCTVSGFSLSSYGVSWVRQPPGKGLEWLGVIWGDGSTNYHPNLMSRLSISKDISKSQVLFKLNSLQTDDTATYYCVTLDYWGQGTSVTVSS
VL: DVVMTQTPLSLPVSLGDQASISCRSSQSLVHRNGNTYLHWYLQKPGQSPKLLIYKVSNRFSGVPDRFSGSGSGTDFTLKISRVEAEDLGLYFCFQTTYVPNTFGGGTKLEIK
